From publication PMC11598873, “Neutralizing VHH Antibodies Targeting the Spike Protein of PEDV” (Veterinary Sciences, 2024)

Assays:
[1] = molecular target: T1, PEDV S protein of strain PEDV-JSXH-2021 in infected Vero E6 cells (Porcine epidemic diarrhea virus, …, UniProt Q91AV1, strain); experiment: cell-based or functional assay
[2] = molecular target: T2, Recombinant PEDV S protein, strain PEDV-JSXH-2021, 3 × FLAG (pFastBac1-PEDV-S, rBV-PEDV-S) (Porcine epidemic diarrhea virus, …, UniProt Q91AV1, strain); experiment: immunostaining of cells or tissue; IFA on Sf9 cells infected with rBV-PEDV-S (MOI 0.1, 48 h), fixed with 4% paraformaldehyde; diluted refolded VHH as primary antibody, mouse anti-His tag, then Alexa Fluor 488 goat anti-mouse IgG; uninfected Sf9 cells as mock; settings: one partner purified
T2 construct: Spike (S) protein of porcine epidemic diarrhea virus strain PEDV-JSXH-2021; band of approximately 180 kDa on the blot; the plasmid was synthesised; also called PEDV S protein expressed in Sf9 cells; source: Sf9 cells infected with recombinant baculovirus rBV-PEDV-S; in fixed cells and in supernatant of sonicated cells; not shown: 3xFLAG, C-terminal, kept

[3] = molecular target: T1, PEDV S protein of strain PEDV-JSXH-2021 …; experiment: immunostaining of cells or tissue; IFA on Vero E6 cells infected with PEDV-JSXH-2021 (MOI 0.01, 48 h), fixed with 4% paraformaldehyde; purified VHH as primary antibody overnight at 4 °C, mouse anti-His tag, then Alexa Fluor 555 goat anti-mouse IgG; uninfected cells as mock; settings: one partner purified
[4] = molecular target: T3, PEDV spike (S) protein, strain PEDV-JSXH-2021, bait pGBKT7-PEDV-S (Porcine epidemic diarrhea virus, …, UniProt Q91AV1, strain); experiment: two-hybrid; yeast AH109; bait in pGBKT7, prey in pGADT7; growth on SD-TL, SD-TLH, SD-TLHA and blue colour on SD-TLHA + X-α-gal, 30 °C, 3–4 days; positive clones verified again after the library screen; settings: partners not purified
T3 construct: Spike (S) protein of porcine epidemic diarrhea virus strain PEDV-JSXH-2021 (G1b type); source: yeast two-hybrid fusion (AH109)

B1: VHH1–4 (recombinant, pcDNA3.1-VHH, 6 × His) (VHH)
VHH: QVQLQESGGGLVQAGGSLRLSCAASGTIFCYGGMGWYRQAPGKERELVAGITMGTSTNYADSVKGRFTISRDNAKNTVYLQMNSLKPEDTAVYYCAAAVMVAGPYQSWHGYWGQGTQVTVSS
Question: B1 was tested. Which “concentration of VHH that completely neutralises infection of Vero E6 cells by PEDV-JSXH-2021 (serial dilutions from 200 ng/µL, read by IFA after 5 to 7 days)” value (shortened to “concentration”) [1] did it give?
Answer: 100 ng/µL

B2: VHH1–41 (recombinant, pcDNA3.1-VHH, 6 × His) (VHH)
VHH: QVQLQESGGGLVQAGGSLRLSCAASGSIFTFVRMGWYRQAPGKERELVAGIAIGSITYYADSVKGRFTISRDNAKNTVYLQMNSLKPEDTAVYYCAAQSVQKAETTSPFAYWGQGTQVTVSS
Question: For B2, which “concentration” value [1] is on record?
Answer: 25 ng/µL

B3: VHH1–89 (recombinant, pcDNA3.1-VHH, 6 × His) (VHH)
VHH: QVQLQESGGGLVQAGGSLRLSCAASGYISDAYYMGWYRQAPGKEREFVATITHGTNTYYADSVKGRFTISRDNAKNTVYLQMNSLKPEDTAVYYCAVFLARIASFLPILLISLRYWGQGTQVTVSS
Question: For B3, which “concentration” value [1] is on record?
Answer: 12.5 ng/µL

B4: VHH2–18 (recombinant, pcDNA3.1-VHH, 6 × His) (VHH)
VHH: QVQLQESGGGLVQAGGSLRLSCAASGYISDAYYMGWYRQAPGKEREFVATITHGTNTYYADSVKGRFTISRDNAKNTVYLQMNSLKPEDTAVYYCAASSLRKVLMTQLPTRLYYYWGQGTQVTVSS
Question: With B4 as the binder, how does the “concentration” value [1] read?
Answer: 50 ng/µL

B5: VHH2–28 (recombinant, pcDNA3.1-VHH, 6 × His) (VHH)
VHH: QVQLQESGGGLVQAGGSLRLSCAASGSISLHPQMGWYRQAPGKERELVAGIATGGNTNYADSVKGRFTISRDNAKNTVYLQMNSLKPEDTAVYYCAVNEYHPRAMYALYIYWGQGTQVTVSS
Question: Which “concentration” value [1] does the source give for B5 here?
Answer: 50 ng/µL

B6: VHH2–50 (recombinant, pcDNA3.1-VHH, 6 × His) (VHH)
VHH: QVQLQESGGGLVQAGGSLRLSCAASGYISDAYYMGWYRQAPGKEREFVATITHGTNTYYADSVKGRFTISRDNAKNTVYLQMNSLKPEDTAVYYCAALFSIIVYYFSNSNLVFNYWGQGTQVTVSS
Question: With B6 as the binder, how does the “concentration” value [1] read?
Answer: 25 ng/µL

B7: VHH2–77 (recombinant, pcDNA3.1-VHH, 6 × His) (VHH)
VHH: QVQLQESGGGLVQAGGSLRLSCAASGYISDAYYMGWYRQAPGKEREFVATITHGTNTYYADSVKGRFTISRDNAKNTVYLQMNSLKPEDTAVYYCAVFSTISVNIYTFLYVIFFYWGQGTQVTVSS
Question: Which “concentration” value [1] does the source give for B7 here?
Answer: 12.5 ng/µL

B8: VHH1–15 (recombinant, pcDNA3.1-VHH, 6 × His) (VHH)
VHH: QVQLQESGGGLVQAGGSLRLSCAASGYISDAYYMGWYRQAPGKEREFVATITHGTNTYYADSVKGRFTISRDNAKNTVYLQMNSLKPEDTAVYYCAVLETRSYSFRYWGQGTQVTVSS
notes: same VHH as m2; also called PEDV S-VHH; not shown: His6, C-terminal, kept
Question: Does B8 bind [2]?
Answer: binds

Question: Does B8 bind [3]?
Answer: binds

B9: VHH1–15 (pGADT7-VHH library clone) (VHH)
VHH: QVQLQESGGGLVQAGGSLRLSCAASGYISDAYYMGWYRQAPGKEREFVATITHGTNTYYADSVKGRFTISRDNAKNTVYLQMNSLKPEDTAVYYCAVLETRSYSFRYWGQGTQVTVSS
notes: clone from a synthetic nanobody yeast library; also called PEDV S-VHH; source: yeast two-hybrid fusion (AH109)
Question: Does B9 bind [4]?
Answer: binds
